T1: JAMA on CHO cells (CHO-JAMA transfectants) (UniProt Q9Y624 28-299, limits assumed)
T1 construct: whole, on cells; Construct not described
T1 sequence (looked up): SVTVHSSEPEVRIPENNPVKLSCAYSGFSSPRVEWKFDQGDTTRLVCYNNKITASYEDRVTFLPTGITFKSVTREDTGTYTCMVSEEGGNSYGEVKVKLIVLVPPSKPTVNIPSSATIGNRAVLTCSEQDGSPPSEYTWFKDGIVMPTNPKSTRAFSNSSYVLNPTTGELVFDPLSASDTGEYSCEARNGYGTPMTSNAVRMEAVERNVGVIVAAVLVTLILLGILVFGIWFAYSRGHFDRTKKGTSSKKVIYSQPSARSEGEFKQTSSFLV

T2: JAMA-Fc (UniProt Q9Y624 28-238, limits assumed)
T2 construct: the construct is not described; not shown: Fc tag
T2 sequence (looked up): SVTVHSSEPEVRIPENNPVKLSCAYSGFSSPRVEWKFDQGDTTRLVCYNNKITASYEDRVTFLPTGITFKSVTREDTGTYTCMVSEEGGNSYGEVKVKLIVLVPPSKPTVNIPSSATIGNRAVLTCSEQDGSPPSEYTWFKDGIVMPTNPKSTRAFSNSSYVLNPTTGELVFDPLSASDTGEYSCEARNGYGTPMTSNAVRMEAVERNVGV

T3: purified extracellular domain of CAR tagged with GST (CAR-GST) (UniProt P78310 20-237, limits assumed)
T3 construct: extracellular domain; also called soluble CAR; sCAR; not shown: GST tag
T3 sequence (looked up): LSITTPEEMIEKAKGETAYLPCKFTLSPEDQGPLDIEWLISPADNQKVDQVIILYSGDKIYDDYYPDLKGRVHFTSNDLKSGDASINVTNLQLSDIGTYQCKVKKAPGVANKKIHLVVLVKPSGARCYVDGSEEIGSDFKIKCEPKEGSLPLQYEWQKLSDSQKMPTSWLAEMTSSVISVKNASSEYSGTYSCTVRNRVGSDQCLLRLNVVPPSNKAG

T4: JAMC_Fc (UniProt Q9BX67 32-241, limits assumed)
T4 construct: Construct not described; not shown: Fc tag
T4 sequence (looked up): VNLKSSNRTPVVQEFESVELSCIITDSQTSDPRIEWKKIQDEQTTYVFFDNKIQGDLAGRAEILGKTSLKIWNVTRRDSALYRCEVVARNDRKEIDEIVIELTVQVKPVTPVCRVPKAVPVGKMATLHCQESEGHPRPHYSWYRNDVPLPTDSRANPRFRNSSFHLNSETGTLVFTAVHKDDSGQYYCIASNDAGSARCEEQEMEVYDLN

T5: JAMA-GST (UniProt Q9Y624 28-238, limits assumed)
T5 construct: Construct not described; not shown: GST tag
T5 sequence (looked up): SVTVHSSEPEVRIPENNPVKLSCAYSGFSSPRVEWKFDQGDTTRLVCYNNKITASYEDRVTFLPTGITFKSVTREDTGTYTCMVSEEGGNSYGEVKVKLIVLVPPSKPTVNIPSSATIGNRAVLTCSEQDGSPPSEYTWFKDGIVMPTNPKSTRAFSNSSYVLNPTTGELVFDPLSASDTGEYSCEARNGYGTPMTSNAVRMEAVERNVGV

T6: CLMP-Fc (UniProt Q9H6B4 19-235, limits assumed)
T6 construct: Construct not described; also called CAR-like membrane protein; not shown: Fc tag
T6 sequence (looked up): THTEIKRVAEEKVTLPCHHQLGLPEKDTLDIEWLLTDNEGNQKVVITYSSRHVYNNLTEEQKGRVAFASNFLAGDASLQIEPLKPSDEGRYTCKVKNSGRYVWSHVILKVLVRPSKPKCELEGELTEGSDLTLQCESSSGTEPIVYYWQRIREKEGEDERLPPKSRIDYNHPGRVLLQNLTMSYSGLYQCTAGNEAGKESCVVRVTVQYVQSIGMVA

T7: EVA-His (UniProt O60487 27-154, limits assumed)
T7 construct: Construct not described; also called EVA1; not shown: His tag
T7 sequence (looked up): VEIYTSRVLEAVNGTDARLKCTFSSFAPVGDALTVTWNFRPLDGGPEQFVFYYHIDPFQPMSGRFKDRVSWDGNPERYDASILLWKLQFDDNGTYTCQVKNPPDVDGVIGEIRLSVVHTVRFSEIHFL


How the values were obtained:
[1] = target: T1, JAMA on CHO cells (CHO-JAMA …); assay: staining of CHO-JAMA transfectants
JAMA-Fc = target: T2, JAMA-Fc; assay: ELISA, antigen coated at 5 µg/ml
SIRPA-HIS = target: T8, SIRPA-HIS (UniProt P78324 31-370, limits assumed); assay: ELISA, antigen coated at 5 µg/ml
T8 construct: Construct not described; not shown: His tag
T8 sequence (P78324 31-370 limits assumed): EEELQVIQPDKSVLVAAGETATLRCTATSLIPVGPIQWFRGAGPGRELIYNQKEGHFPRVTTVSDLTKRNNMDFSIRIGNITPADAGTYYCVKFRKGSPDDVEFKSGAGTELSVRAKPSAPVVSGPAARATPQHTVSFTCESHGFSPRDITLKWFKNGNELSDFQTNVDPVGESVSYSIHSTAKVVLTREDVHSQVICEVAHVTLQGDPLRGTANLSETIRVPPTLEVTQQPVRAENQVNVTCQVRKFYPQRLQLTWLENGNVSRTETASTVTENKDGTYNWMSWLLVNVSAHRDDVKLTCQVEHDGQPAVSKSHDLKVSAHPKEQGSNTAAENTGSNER

[2] = target: T3, purified extracellular domain of CAR …; assay: ELISA, antigen coated at 5 µg/ml
JAMC_Fc = target: T4, JAMC_Fc; assay: ELISA, antigen coated at 5 µg/ml
JAMA-GST = target: T5, JAMA-GST; assay: ELISA, antigen coated at 5 µg/ml
BSA = BSA (UniProt P02769 25-607); assay: ELISA, antigen coated at 5 µg/ml
Chain of BSA (P02769 25-607 limits assumed): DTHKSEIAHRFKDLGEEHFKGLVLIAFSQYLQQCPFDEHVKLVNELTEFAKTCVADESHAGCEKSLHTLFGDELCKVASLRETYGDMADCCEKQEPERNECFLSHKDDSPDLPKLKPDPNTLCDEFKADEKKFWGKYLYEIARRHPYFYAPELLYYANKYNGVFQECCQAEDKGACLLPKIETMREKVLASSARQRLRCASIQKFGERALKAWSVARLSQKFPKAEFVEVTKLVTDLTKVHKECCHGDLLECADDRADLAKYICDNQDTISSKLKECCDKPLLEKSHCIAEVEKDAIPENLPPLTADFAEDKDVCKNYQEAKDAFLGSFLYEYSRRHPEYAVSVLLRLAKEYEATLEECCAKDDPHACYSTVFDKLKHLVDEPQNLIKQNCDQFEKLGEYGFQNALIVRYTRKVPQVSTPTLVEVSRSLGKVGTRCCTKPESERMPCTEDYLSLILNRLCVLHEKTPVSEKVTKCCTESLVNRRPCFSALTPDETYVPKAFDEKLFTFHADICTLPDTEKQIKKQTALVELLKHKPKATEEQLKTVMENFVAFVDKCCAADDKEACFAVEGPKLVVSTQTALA

CLMP-Fc = target: T6, CLMP-Fc; assay: ELISA, antigen coated at 5 µg/ml
EVA-His = target: T7, EVA-His; assay: ELISA, antigen coated at 5 µg/ml

binding result [1] | binding result (JAMA-Fc) | binding result (SIRPA-HIS) | binding result [2] | binding result (JAMC_Fc) | binding result (JAMA-GST) | binding result (BSA) | binding result (CLMP-Fc) | binding result (EVA-His) | Binder
no binding | no binding (tested: antibody 10 µg/ml) | no binding (tested: antibody 10 µg/ml) | no binding (tested: antibody 10 µg/ml) | no binding (tested: antibody 10 µg/ml) | no binding (tested: antibody 10 µg/ml) | no binding (tested: antibody 10 µg/ml) | no binding (tested: antibody 10 µg/ml) | no binding (tested: antibody 10 µg/ml) | DW216 (antibody, IgG1, V domains shown, also called DW216 mAb; H3L3) VH: DVQLVESGPGLVKPSQSLSLTCTVTGYSITSDYAWNWIRQFPGNKLEWMGYISSSGNSNYNPSLKSRISITRDTSKNQFFLQLNSVTTEDTATYYCAGATGYSMDYWGQGTTLTVK VL: VLTQSPAIMSASLGERVTMTCTASSSVSSSYLHWYQQKPGSSPKLWIYSTSNLASGVPARFSGSGSGTSYSLTISSMEAEDAATYYCHQYHRSPFTFGSGTKLELK
no binding | no binding (tested: antibody 10 µg/ml) | no binding (tested: antibody 10 µg/ml) | no binding (tested: antibody 10 µg/ml) | no binding (tested: antibody 10 µg/ml) | no binding (tested: antibody 10 µg/ml) | no binding (tested: antibody 10 µg/ml) | no binding (tested: antibody 10 µg/ml) | no binding (tested: antibody 10 µg/ml) | DW100 (antibody, IgG1, V domains shown, also called DW100 mAb; anti-JAML monoclonal antibody DW100) VH: DVQLVESGAELVRPGASVKLSCKALAYTFTDYEMHWVKQTPVHGLEWIGIIHPGSGGTVYNQKFKGKATLTADKSSSTAYMELSSLTSEDSTVYYCTRRRYYGSSYWYFDVWGAGN VL: VLTQSPASLAASVGETVTITCRASENIYYSLAWYQQKQGKSPQLLIYNANSLEDGVPSRFSGSGSGTQYSLKINSMQPEDTATYFCEQTYDVPLTFGAGTKLEL
